Laboratory results published in patent US20230293638A1 (Eli Lilly, published 2023).
Numbered stars: 1 amine (or outer) side, 2 acyl side, 3 side chain; on linkers, the order of the positions; unused ones are H or OH. Square brackets hold non-standard residues; d marks the D form. Side chains are listed from the residue outwards. Ends that are not written are not given here. * marks the point of attachment. C20 diacid = O=C(O)CCCCCCCCCCCCCCCCCCC(=O)*; αMePhe(2-F) = C[C@](N)(Cc1ccccc1F)C(=O)O; γGlu = O=C(O)[C@H](CCC(=O)[*:2])N[*:1]; αMeF = C[C@](N)(Cc1ccccc1)C(=O)O; αMeL = CC(C)C[C@](C)(N)C(=O)O; cTA = not defined here; AEEA = NCCOCCOCC(=O)O; Aib = CC(C)(N)C(=O)O

B1: Peptide 9 (peptide)
peptide: Y[Aib]EGTFTSDYSILLDSK([AEEA-AEEA-γGlu-C20 diacid])AQ[Aib]AFIEYLIEGGPSSGAPPPS-NH2
modifications: N-terminus assumed
SMILES: CC[C@H](C)[C@H](NC(=O)[C@H](CC(C)C)NC(=O)[C@H](Cc1ccc(O)cc1)NC(=O)[C@H](CCC(=O)O)NC(=O)[C@@H](NC(=O)[C@H](Cc1ccccc1)NC(=O)[C@H](C)NC(=O)C(C)(C)NC(=O)[C@H](CCC(N)=O)NC(=O)[C@H](C)NC(=O)[C@H](CCCCNC(=O)COCCOCCNC(=O)COCCOCCNC(=O)CC[C@H](NC(=O)CCCCCCCCCCCCCCCCCCC(=O)O)C(=O)O)NC(=O)[C@H](CO)NC(=O)[C@H](CC(=O)O)NC(=O)[C@H](CC(C)C)NC(=O)[C@H](CC(C)C)NC(=O)[C@@H](NC(=O)[C@H](CO)NC(=O)[C@H](Cc1ccc(O)cc1)NC(=O)[C@H](CC(=O)O)NC(=O)[C@H](CO)NC(=O)[C@@H](NC(=O)[C@H](Cc1ccccc1)NC(=O)[C@@H](NC(=O)CNC(=O)[C@H](CCC(=O)O)NC(=O)C(C)(C)NC(=O)[C@@H](N)Cc1ccc(O)cc1)[C@@H](C)O)[C@@H](C)O)[C@@H](C)CC)[C@@H](C)CC)C(=O)N[C@@H](CCC(=O)O)C(=O)NCC(=O)NCC(=O)N1CCC[C@H]1C(=O)N[C@@H](CO)C(=O)N[C@@H](CO)C(=O)NCC(=O)N[C@@H](C)C(=O)N1CCC[C@H]1C(=O)N1CCC[C@H]1C(=O)N1CCC[C@H]1C(=O)N[C@@H](CO)C(N)=O
B2: Peptide 115 (peptide)
peptide: YXEGTXTSDYSIXLDEKAQXAFIEYLIEGGPSSGAPPPS
modifications: Aib2; αMeF6; αMeL13; K17((2-[2-(2-Amino-ethoxy)-ethoxy]-acetyl)2-(γGlu)-CO-(CH2)18-CO2H); Aib20; C-terminal NH2
B3: Peptide 129 (peptide)
peptide: YXEGTXTSDLSILLDKKAQXAFIEYLIEGGPSSGAPPPS
modifications: Aib2; αMeF6; K17((2-[2-(2-Amino-ethoxy)-ethoxy]-acetyl)2-(γGlu)-CO-(CH2)18-CO2H); Aib20; C-terminal NH2
B4: Peptide 150 (peptide)
peptide: YXEGTXTSDYSIXLDEKAQXEFISYLIEGGPSSGAPPPS
modifications: Aib2; αMeF(2F)6; αMeL13; K17((2-[2-(2-Amino-ethoxy)-ethoxy]-acetyl)2-(γGlu)-CO-(CH2)18-CO2H); Aib20; C-terminal NH2
B5: Peptide 152 (peptide)
peptide: YXEGTXTSDYSIXLDEKAQXEFIXYLIEGGPSSGAPPPS
modifications: Aib2; αMeF(2F)6; αMeL13; K17((2-[2-(2-Amino-ethoxy)-ethoxy]-acetyl)2-(γGlu)-CO-(CH2)18-CO2H); Aib20; Aib24; C-terminal NH2
B6: Peptide 157 (peptide)
peptide: YXEGTXTSDXSIXLDEKAQXEFIEYLIEGGPSSGAPPPS
modifications: Aib2; αMeF(2F)6; 3Pal10; αMeL13; K17((2-[2-(2-Amino-ethoxy)-ethoxy]-acetyl)2-(γGlu)-CO-(CH2)18-CO2H); Aib20; C-terminal NH2
B7: Peptide 143 (peptide)
peptide: YXEGTXTSDYSIXLDKKAQXXFIEYLIEGGPSSGAPPPS
modifications: Aib2; αMeF6; αMeL13; K17((2-[2-(2-Amino-ethoxy)-ethoxy]-acetyl)2-(γGlu)-CO-(CH2)18-CO2H); Aib20; Aib21; C-terminal NH2
B8: Peptide 151 (peptide)
peptide: YXEGTXTSDYSIXLDEKAQXEFIPYLIEGGPSSGAPPPS
modifications: Aib2; αMeF(2F)6; αMeL13; K17((2-[2-(2-Amino-ethoxy)-ethoxy]-acetyl)2-(γGlu)-CO-(CH2)18-CO2H); Aib20; C-terminal NH2
B9: Peptide 128 (peptide)
peptide: YXEGTXTSDHSILLDKKAQXAFIEYLIEGGPSSGAPPPS
modifications: Aib2; αMeF6; K17((2-[2-(2-Amino-ethoxy)-ethoxy]-acetyl)2-(γGlu)-CO-(CH2)18-CO2H); Aib20; C-terminal NH2
B10: Peptide 155 (peptide)
peptide: YXEGTXTSDXSIXLDEKAQXEFIEYLIEGGPSSGAPPPS
modifications: Aib2; αMeF(2F)6; cTA10; αMeL13; K17((2-[2-(2-Amino-ethoxy)-ethoxy]-acetyl)2-(γGlu)-CO-(CH2)18-CO2H); Aib20; C-terminal NH2
B11: Peptide 147 (peptide)
peptide: YXEGTXTSDYSIXLDEKAQXEFIXYLIEGGPSSGAPPPS
modifications: Aib2; αMeF(2F)6; αMeL13; K17((2-[2-(2-Amino-ethoxy)-ethoxy]-acetyl)2-(γGlu)-CO-(CH2)18-CO2H); Aib20; Aad24; C-terminal NH2
B12: Peptide 126 (peptide)
peptide: YXEGTXTSDYSIXLDKKAQXAFIEYLIEAGPSSGAPPPS
modifications: Aib2; αMeF6; αMeL13; K17((2-[2-(2-Amino-ethoxy)-ethoxy]-acetyl)2-(γGlu)-CO-(CH2)18-CO2H); Aib20; C-terminal NH2
B13: Peptide 125 (peptide)
peptide: YXEGTXTSDYSIXLDKKAQXAFIEYLIEGGPSSGAPPPS
modifications: Aib2; αMeF6; αMeL13; K17((2-[2-(2-Amino-ethoxy)-ethoxy]-acetyl)2-(γGlu)2-CO-(CH2)18-CO2H); Aib20; C-terminal NH2
B14: Peptide 140 (peptide)
peptide: YXEGTXTSDYSIXLDKKAQXDFIEYLIEGGPSSGAPPPS
modifications: Aib2; αMeF6; αMeL13; K17((2-[2-(2-Amino-ethoxy)-ethoxy]-acetyl)2-(γGlu)-CO-(CH2)18-CO2H); Aib20; C-terminal NH2
B15: Peptide 20 (peptide)
peptide: YXEGTFTSDYSIXLDKKAQXAFIEYLIEGGPSSGAPPPS
modifications: Aib2; αMeL13; K17((2-[2-(2-Amino-ethoxy)-ethoxy]-acetyl)2-(γGlu)-CO-(CH2)18-CO2H); Aib20; C-terminal NH2
B16: Peptide 171 (peptide)
peptide: YXEGTXTSDHSIXLDXKAQXTFIXYLIEGGPSSGAPPPS
modifications: Aib2; αMeF(2F)6; αMeL13; Orn16; K17((2-[2-(2-Amino-ethoxy)-ethoxy]-acetyl)2-(γGlu)-CO-(CH2)18-CO2H); Aib20; D-Glu24; C-terminal NH2
B17: Peptide 139 (peptide)
peptide: YXEGTXTSDYSIXLDKKAQXTFIEYLIEGGPSSGAPPPS
modifications: Aib2; αMeF6; αMeL13; K17((2-[2-(2-Amino-ethoxy)-ethoxy]-acetyl)2-(γGlu)-CO-(CH2)18-CO2H); Aib20; C-terminal NH2
B18: Peptide 137 (peptide)
peptide: YXEGTXTSDYSIXLDKKAQXXFIEYLIEGGPSSGAPPPS
modifications: Aib2; αMeF6; αMeL13; K17((2-[2-(2-Amino-ethoxy)-ethoxy]-acetyl)2-(γGlu)-CO-(CH2)18-CO2H); Aib20; Aad21; C-terminal NH2
B19: Peptide 149 (peptide)
peptide: YXEGTXTSDYSIXLDEKAQXEFIVYLIEGGPSSGAPPPS
modifications: Aib2; αMeF(2F)6; αMeL13; K17((2-[2-(2-Amino-ethoxy)-ethoxy]-acetyl)2-(γGlu)-CO-(CH2)18-CO2H); Aib20; C-terminal NH2
B20: Peptide 153 (peptide)
peptide: YXEGTXTSDYSIXLDEKAQXEFIHYLIEGGPSSGAPPPS
modifications: Aib2; αMeF(2F)6; αMeL13; K17((2-[2-(2-Amino-ethoxy)-ethoxy]-acetyl)2-(γGlu)-CO-(CH2)18-CO2H); Aib20; C-terminal NH2
B21: Peptide 169 (peptide)
peptide: YXEGTXTSDHSIXLDEKAQXTFIXYLIEGGPSSGAPPPS
modifications: Aib2; αMeF(2F)6; αMeL13; K17((2-[2-(2-Amino-ethoxy)-ethoxy]-acetyl)2-(γGlu)-CO-(CH2)16-CO2H); Aib20; D-Glu24; C-terminal NH2
B22: Peptide 118 (peptide)
peptide: YXEGTXTSDYSIXLDEKAQXEFIEYLIEGGPSSGAPPPS
modifications: Aib2; αMeF(2F)6; αMeL13; K17((2-[2-(2-Amino-ethoxy)-ethoxy]-acetyl)2-(γGlu)-CO-(CH2)18-CO2H); Aib20; C-terminal NH2
B23: Peptide 144 (peptide)
peptide: YXEGTXTSDYSIXLDKKAQHXFIEYLIEGGPSSGAPPPS
modifications: Aib2; αMeF6; αMeL13; K17((2-[2-(2-Amino-ethoxy)-ethoxy]-acetyl)2-(γGlu)-CO-(CH2)18-CO2H); Aib21; C-terminal NH2
B24: Peptide 148 (peptide)
peptide: YXEGTXTSDYSIXLDEKAQXEFIAYLIEGGPSSGAPPPS
modifications: Aib2; αMeF(2F)6; αMeL13; K17((2-[2-(2-Amino-ethoxy)-ethoxy]-acetyl)2-(γGlu)-CO-(CH2)18-CO2H); Aib20; C-terminal NH2
B25: Peptide 168 (peptide)
peptide: YXEGTXTSDHSIXLDEKAQXTFIXYLIEGGPSSGAPPPS
modifications: Aib2; αMeF(2F)6; αMeL13; K17((2-[2-(2-Amino-ethoxy)-ethoxy]-acetyl)2-(γGlu)-CO-(CH2)18-CO2H); Aib20; D-Glu24; C-terminal NH2
B26: Peptide 167 (peptide)
peptide: Y[Aib]EGT[αMePhe(2-F)]TSDHSI[αMeL]LDEK([AEEA-AEEA-γGlu-C20 diacid])AQ[Aib]TFI[dE]YLIEGGPSSG-NH2
modifications: N-terminus assumed
SMILES: CC[C@H](C)[C@H](NC(=O)[C@H](CC(C)C)NC(=O)[C@H](Cc1ccc(O)cc1)NC(=O)[C@@H](CCC(=O)O)NC(=O)[C@@H](NC(=O)[C@H](Cc1ccccc1)NC(=O)[C@@H](NC(=O)C(C)(C)NC(=O)[C@H](CCC(N)=O)NC(=O)[C@H](C)NC(=O)[C@H](CCCCNC(=O)COCCOCCNC(=O)COCCOCCNC(=O)CC[C@H](NC(=O)CCCCCCCCCCCCCCCCCCC(=O)O)C(=O)O)NC(=O)[C@H](CCC(=O)O)NC(=O)[C@H](CC(=O)O)NC(=O)[C@H](CC(C)C)NC(=O)[C@](C)(CC(C)C)NC(=O)[C@@H](NC(=O)[C@H](CO)NC(=O)[C@H](Cc1c[nH]cn1)NC(=O)[C@H](CC(=O)O)NC(=O)[C@H](CO)NC(=O)[C@@H](NC(=O)[C@](C)(Cc1ccccc1F)NC(=O)[C@@H](NC(=O)CNC(=O)[C@H](CCC(=O)O)NC(=O)C(C)(C)NC(=O)[C@@H](N)Cc1ccc(O)cc1)[C@@H](C)O)[C@@H](C)O)[C@@H](C)CC)[C@@H](C)O)[C@@H](C)CC)C(=O)N[C@@H](CCC(=O)O)C(=O)NCC(=O)NCC(=O)N1CCC[C@H]1C(=O)N[C@@H](CO)C(=O)N[C@@H](CO)C(=O)NCC(N)=O
B27: Peptide 120 (peptide)
peptide: Y[Aib][cTA]GT[αMeF]TSDYSI[αMeL]LDEK([AEEA-AEEA-γGlu-C20 diacid])AQ[Aib]AFIEYLIEGGPSSGAPPPS-NH2
modifications: reading uncertain
B28: Peptide 123 (peptide)
peptide: YXEGTXTSDYSIXLDKKAQXEFIEYLIEGGPSSG
modifications: Aib2; αMeF6; αMeL13; K17((2-[2-(2-Amino-ethoxy)-ethoxy]-acetyl)2-(γGlu)-CO-(CH2)18-CO2H); Aib20; C-terminal NH2
B29: Peptide 154 (peptide)
peptide: Y[Aib]EGT[αMePhe(2-F)]TSDHSI[αMeL]LDEK([AEEA-AEEA-γGlu-C20 diacid])AQ[Aib]EFIEYLIEGGPSSGAPPPS-NH2
modifications: N-terminus assumed
SMILES: CC[C@H](C)[C@H](NC(=O)[C@H](CC(C)C)NC(=O)[C@H](Cc1ccc(O)cc1)NC(=O)[C@H](CCC(=O)O)NC(=O)[C@@H](NC(=O)[C@H](Cc1ccccc1)NC(=O)[C@H](CCC(=O)O)NC(=O)C(C)(C)NC(=O)[C@H](CCC(N)=O)NC(=O)[C@H](C)NC(=O)[C@H](CCCCNC(=O)COCCOCCNC(=O)COCCOCCNC(=O)CC[C@H](NC(=O)CCCCCCCCCCCCCCCCCCC(=O)O)C(=O)O)NC(=O)[C@H](CCC(=O)O)NC(=O)[C@H](CC(=O)O)NC(=O)[C@H](CC(C)C)NC(=O)[C@](C)(CC(C)C)NC(=O)[C@@H](NC(=O)[C@H](CO)NC(=O)[C@H](Cc1c[nH]cn1)NC(=O)[C@H](CC(=O)O)NC(=O)[C@H](CO)NC(=O)[C@@H](NC(=O)[C@](C)(Cc1ccccc1F)NC(=O)[C@@H](NC(=O)CNC(=O)[C@H](CCC(=O)O)NC(=O)C(C)(C)NC(=O)[C@@H](N)Cc1ccc(O)cc1)[C@@H](C)O)[C@@H](C)O)[C@@H](C)CC)[C@@H](C)CC)C(=O)N[C@@H](CCC(=O)O)C(=O)NCC(=O)NCC(=O)N1CCC[C@H]1C(=O)N[C@@H](CO)C(=O)N[C@@H](CO)C(=O)NCC(=O)N[C@@H](C)C(=O)N1CCC[C@H]1C(=O)N1CCC[C@H]1C(=O)N1CCC[C@H]1C(=O)N[C@@H](CO)C(N)=O

Biological target: human GLP-1 receptor (human, UniProt P43220 24-463)
Assay: cell-based or functional assay

| Binder | hGLPIR cAMP EC50 ratio |
| --- | --- |
| B1 | 0.314 |
| B2 | 0.743 |
| B3 | 0.543 |
| B4 | 0.79 |
| B5 | 0.484 |
| B6 | 1.25 |
| B7 | 0.714 |
| B8 | 0.0278 |
| B9 | 0.7 |
| B10 | 0.0978 |
| B11 | 1.13 |
| B12 | 0.869 |
| B13 | 1.31 |
| B14 | 1.16 |
| B15 | 0.577 |
| B16 | 0.0609 |
| B17 | 1.13 |
| B18 | 1.25 |
| B19 | 0.484 |
| B20 | 0.501 |
| B21 | 0.0136 |
| B22 | 1.13 |
| B23 | 0.851 |
| B24 | 0.859 |
| B25 | 0.0323 |
| B26 | 0.0487 |
| B27 | 0.319 |
| B28 | 1.58 |
| B29 | 1.23 |
